Laboratory results: patent publication US20240254220A1 (CENTRICSBIO, published 2024)

Experiments:
[1] = target: T1, CD300c antigen (11832-H08H, Sino Biological) (human, UniProt Q08708 21-183); test: SPR, CD300c immobilised on the chip (399.2 RU), CL7 as analyte at 0-6.25 µg/mL; CD300c on the chip, CL7 as analyte
T1 construct: Bought antigen; also called CD300c protein; CD300 antigen-like family member C
T1 sequence (looked up): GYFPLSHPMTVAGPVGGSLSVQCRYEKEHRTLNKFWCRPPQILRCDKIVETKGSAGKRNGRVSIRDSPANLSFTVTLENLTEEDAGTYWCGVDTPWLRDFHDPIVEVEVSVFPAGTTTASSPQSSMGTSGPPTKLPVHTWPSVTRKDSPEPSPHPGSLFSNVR
Procedure: In order to identify the binding affinity between the antigen CD300c and the anti-CD300c monoclonal antibody CL7, a surface plasmon resonance experiment was performed.
To immobilize CD300c on a […], 5 μg/mL of CD300c was diluted in 10 mM acetate buffer (pH 5.5). Then, the flow rates were all set equally to […], and the target RU was respectively set to 300 RU. […] by a mixture of 0.2 M EDC and 0.05 M NHS, and blocked with 1 M ethanolamine to perform the immobilization so that the final RU of CD300c became 399.2 RU. Then, CL7 was diluted in PBSP to concentrations of 0, 0.195, 0.39, 0.78, 1.56, 3.125, and 6.25 μg/mL, separately. […] Subsequently, 50 mM NaOH was allowed to flow at a rate of 30 μL/min for 30 seconds to regenerate the surface.

mouse CD300c = target: T2, mouse CD300c (mouse); test: cell-based or functional assay
T2 sequence (A2A7V7 whole entry, looked up): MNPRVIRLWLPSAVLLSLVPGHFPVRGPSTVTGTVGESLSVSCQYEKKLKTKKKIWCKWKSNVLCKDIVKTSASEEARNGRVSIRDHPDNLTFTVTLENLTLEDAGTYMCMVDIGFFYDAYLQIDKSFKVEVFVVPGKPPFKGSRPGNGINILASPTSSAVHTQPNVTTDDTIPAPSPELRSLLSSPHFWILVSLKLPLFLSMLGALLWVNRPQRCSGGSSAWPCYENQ

[2] = target: T3, CD300c on the surface of cells (human, UniProt Q08708 21-224); test: flow cytometry (FACS binding) on 293T cells overexpressing CD300c, FITC anti-human IgG (H+L), MFI
T3 construct: whole, on cells; also called cellular antigen
T3 sequence (looked up): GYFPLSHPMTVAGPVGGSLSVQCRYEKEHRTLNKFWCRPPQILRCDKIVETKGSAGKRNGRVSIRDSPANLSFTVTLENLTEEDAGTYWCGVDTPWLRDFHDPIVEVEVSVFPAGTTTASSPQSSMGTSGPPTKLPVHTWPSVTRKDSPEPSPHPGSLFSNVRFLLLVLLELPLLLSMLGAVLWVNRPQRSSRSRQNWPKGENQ
Procedure: (§1) In order to identify whether the anti-CD300c monoclonal antibody (CL7) recognizes a cellular antigen, FACS binding was performed.
(§2) Then, the cells were incubated with the anti-CD300c monoclonal antibody, which was serially diluted 3-fold starting from 10 μg/mL, in a CO₂ incubator for 30 minutes, and washed twice with FACS buffer. Then, the cells were incubated with FITC-conjugated anti-human IgG (H+L), which was diluted 1:100 in FACS buffer, in a CO₂ incubator for 30 minutes, and washed twice with FACS buffer. Subsequently, FITC signals were measured with a CytoFLEX instrument manufactured by Beckman Coulter, Inc., and then the MFI values were obtained using CytExpert program.

[3] = target: T1, CD300c antigen (11832-H08H, Sino …); test: binding ELISA on coated antigen (8 µg/mL), HRP anti-Fc detection, 450 nm (Experimental Example 2.5)
Procedure: (§3) In order to identify that the anti-CD300c monoclonal antibody CL7 specifically binds only to CD300c without binding to other B7 family proteins, binding ELISA was performed. More specifically, each of CD300c antigen, CD300a antigen, or seven B7 family protein antigens (PD-L1 [B7-H1] (Sino Biological), ICOS Ligand[B7-H2] (Sino Biological), CD276[B7-H3] (Sino Biological), B7-H4 (Sino Biological), CD80[B7-1] (Sino Biological), CD86[B7-2] (Sino Biological), CD273[PD-L2] (Sino Biological)) in a coating buffer (0.1 M sodium carbonate, pH 9.0) was coated on an ELISA plate at a concentration of 8 μg/mL per well, and then bound to the plate by incubation at 2° C. to 8° C. overnight. The unbound antigen was removed by washing with PBST three times, and then […] of blocking buffer (5% skim milk in PBST) was added to each well. Subsequently, blocking was performed at room temperature for 1 hour, followed by washing again with PBST. Thereafter, CL7 was diluted in quadruplicate with PBS, incubated with the antigen at room temperature for 1 hour for antigen binding 1 hour later, and washed three times with PBST. Then, a secondary antibody (HRP-conjugated anti-Fc IgG) diluted to 4 μg/mL in blocking buffer was added thereto, followed by incubation at room temperature for 1 hour. Subsequently, the unbound antibody for detection was removed using PBST, and then a TMB solution was added thereto, followed by incubation for 10 minutes for development. Then, 2 N sulfuric acid solution was added to terminate the development reaction, and the absorbance was measured at 450 nm to identify the antibody specifically binding to the CD300c antigen.

[4] = target: T4, CD80[B7-1] (Sino Biological) (UniProt P33681 35-242); test: as above
T4 sequence (looked up): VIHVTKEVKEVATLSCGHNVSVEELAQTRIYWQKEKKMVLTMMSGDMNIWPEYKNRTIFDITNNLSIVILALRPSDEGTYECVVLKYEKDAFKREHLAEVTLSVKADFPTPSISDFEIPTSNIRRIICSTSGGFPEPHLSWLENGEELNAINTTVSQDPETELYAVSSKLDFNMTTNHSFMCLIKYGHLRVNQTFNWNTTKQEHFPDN
Procedure: as §3

[5] = target: T3, CD300c on the surface of cells; test: flow cytometry (FACS binding) on THP-1 cells overexpressing CD300c, FITC anti-human IgG (H+L), MFI
Procedure: as §1, §2

B1: CL7 (antibody, V domains shown)
VH: EVQLLESGGGLVQPGGSLRLSCAASGFTFSRYAMSWVRQAPGKGLEWVSAISGSGGSTYYADSVKGRFTISRDNSKNTLYLQMNSLRAEDTAVYYCARSSQGIFDIWGQGTLVTVSS
VL: QSVLTQPPSASGTPGQRVTISCSGNNIGTRRVHWYQQLPDTAPKLLIYSKNNRPSGVPDRFSGSKSGTSASLAISGLRSEDEADYYCAAWDDSLSGPVFGGGTKLTVL
notes: detected with anti-human IgG (H+L) and anti-Fc IgG; also called anti-CD300c monoclonal antibody CL7; anti-CD300c monoclonal antibody (CL7)
For B1, which Kd [1] is on record?
The Kd was 0.52 nM.

And the “cancer cell proliferation inhibitory effect, CT26 mouse colon cancer cells, 10 ug/mL antibody, 5 days, CCK-8” value (mouse CD300c)?
Its value is 66%.

And the EC50 [2]?
Its EC50 is 2.7 nM.

What about the “EC50 (read off the curve)” value [3] of the same binder?
The value was ~0.2 µg/mL.

Does B1 bind [4]?
Result: no binding (tested: log10 about 0.4 ug/ml (about 2.5 ug/ml))

And the EC50 [5]?
Its EC50 is 2.6 nM.
